The nature of this data set: yeast display, Sf9 membrane polyspecificity reagent, FACS + sequencing; frameworks hold sequencing errors. In a few lines:
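Polyreactivity labels are assigned by the sorting gate from which each nanobody was recovered. The gates were low and high (top ~1%), set on anti-HA fluorescence for expression and streptavidin fluorescence for reagent binding. Before sorting, galactose-induced (36–48 hours) yeast display cells were stained for 1 hour at 4 °C with 10% biotinylated, detergent-solubilized Sf9 membrane reagent.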
As for “QVQLVESGGGLVQAGGSLRLSCAASGRTSASNAMGWYREAPGKERELVATIDGIDGNTYYADSVKGRFTISRDNAKNTVYLQMNSLKPEDTAVYYCNVESWRLQAIYKYSYWGQGTQVTVSS”, the “polyreactivity (PSR sort gate)” value was “low polyreactivity”.
For “QVQLVESGGGLVQAGGSLRLSCAASGRTSAWYAMGWYRQAPGKERELVADISGSADSTYYADSVKGRFTISRDNAKNTVYLQMNSLKPEDTAVYYCATSISTPSGDPFDYWGQGTQVTVSS”, the “polyreactivity (PSR sort gate)” value was “low polyreactivity”.
“QVQLVESGGGLVQAGGSLRLSCAASGRTSDGYAMGWYRPAPGKERELVAGITEGGGDTYYADSVKGRFTISRDNAKNTVYLQMNSLKPEDTAVYYCNAVEGSRLPYDYWGQGTQVTVSS”: the “polyreactivity (PSR sort gate)” value was “low polyreactivity”.
“QVQLVESGGGLVQAGGSLRLSCAASGRTSDINTMGWYRQAPGKERELVAAISDSDGTTYYADSVKGRFTISRDNAKNTVYLQMNSLKPDDTAVYYCAAERATVKFGYWGQGTQVTVSS”: the “polyreactivity (PSR sort gate)” value was “low polyreactivity”.
Take “QVQLVESGGGLVQAGGSLRLSCAASGRTSFGYAMGWYRQAPGKERELVAVISIGGTTYYADSVKGRFTISRDNAKNTVYLQMNSLKPEDTAVYYCAATPSNATGFLSYDYWGQGTQVTVSS”: the “polyreactivity (PSR sort gate)” value is listed as “low polyreactivity”.
Take “QVQLVESGGGLVQAGGSLRLSCAASGRTSGGNAMGWYRQAPGKERELVAAISLRGGGTYYADSVKGRFTISRDNAKNTVYLQMNSLIPEDTAVFYCAAEFTYYGARWGYLGDLDYWGQGTQVTVSS”: the “polyreactivity (PSR sort gate)” value is “high polyreactivity”.
On to “QVQLVESGGGLVQAGGSLRLSCAASGRTSKRYAMGWYRQAPGKERELVASIRGGDGSTYYADSVKGRFTISRDNAKNTVYLQMNSLKPEDTAVYYCARASSYGYYYWGQGTQVTVSS”, for which the “polyreactivity (PSR sort gate)” value was “high polyreactivity”.
For “QVQLVESGGGLVQAGGSLRLSCAASGRTSLGYDMGWYRQAPGKERELVAAITRGGSTYYADSVKGRFTISRDNAKNTVYLQMNSLKPEDTAVYYCAARPWTSASYDYWGQGTQVTVSS” the value was “low polyreactivity”.
In the case of “QVQLVESGGGLVQAGGSLRLSCAASGRTSLNYAMGWYRQAPGKERELVAAITRGGGGTYYADSVKGRFTISRDNAKNTVYLQMNSLIPEDTAVYYCNRVFSLYGYGWQKYDYWGQGTQVTVSS”, the “polyreactivity (PSR sort gate)” value is given as “high polyreactivity”.
As for “QVQLVESGGGLVQAGGSLRLSCAASGRTSPRYAMGWYRQAPGKEREWVASISGSGGRTYYADSVKGRFTISRDNAKNTVYLQMNSLKPEDTAVYYCAASTQGNYYPYKRYDYCGQGTQVTVSS”, the “polyreactivity (PSR sort gate)” value is reported as “high polyreactivity”.
Take “QVQLVESGGGLVQAGGSLRLSCAASGRTSREYAMGWYRQAPGKERELVAAISWNGGSTYYADSVKGRFTISRDNAMNTVYLQMNSLKPEDTAVYYCAARGKGYYRFGYWGQGTQVTVSS”: the “polyreactivity (PSR sort gate)” value is “high polyreactivity”.
In the case of “QVQLVESGGGLVQAGGSLRLSCAASGRTSSSNAMGWYRQAPGKERELVATISRTGSTYYADSVKGRFTISRDNAKNTVYLQMNSLKPEDTAVYYCNRYFSEALLHGSCYNRYYYWGQGTQVTVSS”, the “polyreactivity (PSR sort gate)” value is “low polyreactivity”.
Consider “QVQLVESGGGLVQAGGSLRLSCAASGRTSVLYAMGWYRQAPGKEREFVAAITWNSGSTYYADSVKGRFTISRDNAKNTVYLQMNSLKPEDTAVYYCNADYYFSSYRSTYDYWGQGTQVTVSS”, for which the “polyreactivity (PSR sort gate)” value was “low polyreactivity”.
For the sequence “QVQLVESGGGLVQAGGSLRLSCAASGRTVEQNAMGLYRQAPGKERELVASITSVGSTDYADSVKGRFTISRDNAKNTVYLQMNSLKPEDTAVYYCAKTLGSQNYDFDYWGKGTQVTVSS”, the “polyreactivity (PSR sort gate)” value is listed as “low polyreactivity”.
Take “QVQLVESGGGLVQAGGSLRLSCAASGRTVGSYVMGWYRHAPVKERELVATISRRGGTTYYADSVKARFTISRDNAKNTVYLQMNSLKPEDTAVYYCNRVIPLASYGYGYWGQGTQVTVSS”: the “polyreactivity (PSR sort gate)” value was “high polyreactivity”.
In the case of “QVQLVESGGGLVQAGGSLRLSCAASGRTVPYAMGWYRQAPGKERELVATITYRVSTYYADSVKGRFTISRDNAKNTVYLQMNSLKPEDTEVYYCNTVTYPYVPALYDYWGQGTQVTVSS”, the “polyreactivity (PSR sort gate)” value is recorded as “high polyreactivity”.
For the sequence “QVQLVESGGGLVQAGGSLRLSCAASGRTYAYYAMGWYRQAPGKERELVAAITRGTDTHYADSVKGRFTISRDNAKNTVYLQMNSLKPEDTAVYYCAADLSQDFDYWGQGTQVTVSS”, the “polyreactivity (PSR sort gate)” value was “low polyreactivity”.
On to “QVQLVESGGGLVQAGGSLRLSCAASGRTYGYNAMGWYRQAPGKERELVAAISRSGDSTYYADSVKGRFTISRDNAKNTVYLQMNSLKPEDTAVYYCATRYVTTGYDYWGQGTQVTVSS”, for which the “polyreactivity (PSR sort gate)” value is “low polyreactivity”.
As for “QVQLVESGGGLVQAGGSLRLSCAASGRTYKYYALGWYRQARGKERELVAAITSGASTNYADSVKGRFTISRDNAKNTVYLQMNSLKPEDTAVYYCAARKAYFFDRYGYWGLGTQVTVSS”, the “polyreactivity (PSR sort gate)” value was “high polyreactivity”.
For “QVQLVESGGGLVQAGGSLRLSCAASGRTYPRYGMGWYRQAPGKERELVDTIRTGGRTNYADSVKGRFTISRDNAKNTVYLQMNSLKPEDTAVYYCATDSSKHPYSPTLLKFDYWGQGTQVTVSS” the value was “low polyreactivity”; for “QVQLVESGGGLVQAGGSLRLSCAASGRTYPYYAMGWYRQAPGKEREVVAAITYRGGSTSYADSVKGRFTISRDNAKNTVDLQMNSLKPEDTAVYYCAARTWNRRSPYDYWGQGTQVTVSS”, “high polyreactivity”.
Take “QVQLVESGGGLVQAGGSLRLSCAASGRTYTFNTMGLSRQAPGKEREWVAAIDGDGTTNYADSVKGRFTISRDNAKNTVYLQMNSLKPEDTAVYYCAADFLYSFWYEPTFDYWGQGTQVTVSS”: the “polyreactivity (PSR sort gate)” value was “low polyreactivity”.
On to “QVQLVESGGGLVQAGGSLRLSCAASGRTYVNTMGWYRQAPGKERELVAAISWSGGRTRYADSVKGRFTISRDNAKNTVYLQMNSLKPEDTAVYYCAKRTYSRKFRGAYNYWGQGTQVTVSS”, for which the “polyreactivity (PSR sort gate)” value is reported as “high polyreactivity”.
For the sequence “QVQLVESGGGLVQAGGSLRLSCAASGRTYVVYAMGWYRQAPGKERELVARFRWRDVSTYYADSVKGRFTISRDNAKNTVYLQMNSLKPEDSAVYYCAARSYTGGGRLYYWGQGTQVTVSS”, the “polyreactivity (PSR sort gate)” value is reported as “high polyreactivity”.
As for “QVQLVESGGGLVQAGGSLRLSCAASGRTYYYNAMGWYREAPGKERELVARISQRTGSTYYADSVKGRFTISRDNAKNTVYLQMNSLKPEDTAVYYCAASSQTRQWTNDYWGQGTQVTVSS”, the “polyreactivity (PSR sort gate)” value is “high polyreactivity”.
For “QVQLVESGGGLVQAGGSLRLSCAASGSICAYYAMGGYRQAPGTERELVAAISQSGGSTYYADSVKGRVTISRDNAKNTVYLQMNSLKPEDTADYYCAARFRYGYSGYRYDYWGQGTQVNVSS” the value was “high polyreactivity”.
For the sequence “QVQLVESGGGLVQAGGSLRLSCAASGSICVDNAMGWYRQAPGKERELVAVITLRSGSTNYADSVKGRFTISRDNAKNTVYLQMNSLKPEDTAVYYCAADDTYHDYQRDTDDDYWGQGTQVTVSS”, the “polyreactivity (PSR sort gate)” value was “low polyreactivity”.
For the sequence “QVQLVESGGGLVQAGGSLRLSCAASGSICYSYAMGWYRQAPWKEREFVATISDSSGSTYYADSVKGRFTISRDYATNTVYLQMNSLKPEDSAVYYCATTDSYGYYGYGYWGQGTQVTVSS”, the “polyreactivity (PSR sort gate)” value is reported as “low polyreactivity”.
For “QVQLVESGGGLVQAGGSLRLSCAASGSIERNAMGWYRQAPGKERELVAAISRSGTRTYYADSVKGRFTISRDNAKNTVYLQMNSLKPEDTAVYYCAKASAQWVQFDYWGQGTQVTVSS” the value was “high polyreactivity”; for “QVQLVESGGGLVQAGGSLRLSCAASGSIFAAYAMGWYRQAPGKERELVAVINSRGGITSYADSVKGRFTISRDNAKNTVYLQMNSLKPEDTAVYYCAARPWYSWRYDYWGQGTQVTVSS”, “high polyreactivity”.

The values are drawn from the nanobody polyreactivity screen of Harvey et al. (2022).
